Legend:
[1] = Analytical size exclusion chromatography of XTEN fusion proteins; format: physicochemical; details: for Apparent MW: SEC, calibrated with globular protein standards; for Apparent Molecular Weight Factor: apparent MW relative to actual MW; for RH: hydrodynamic radius from SEC
Method: Size exclusion chromatography analyses were performed on fusion proteins containing various therapeutic proteins and unstructured recombinant proteins of increasing length. […] Chromatogram profiles were monitored using OD214 nm and OD280 nm Column calibration for all assays were performed using a size exclusion calibration standard from BioRad; the markers include thyroglobulin (670 kDa), bovine gamma-globulin (158 kDa), chicken ovalbumin (44 kDa), equine myoglobuin (17 kDa) and vitamin B12 (1.35 kDa). […] Based on the SEC analyses for all constructs evaluated, including a […] composition, the apparent molecular weights, the apparent molecular weight factor (expressed as the ratio of apparent molecular weight to the calculated molecular weight) and the hydrodynamic radius (RH in nm) are shown in Table 16.

[2] = test system: activation of factor X; experiment: Chromogenix Coamatic Factor VIII activity assay; format: biochemical
From the text: BDD FVIII and FVIII-XTEN fusion protein constructs pBC0114, pBC0135, pBC0136, pBC0137, pBC0145, pBC0146, and pBC0149, in various configurations, including XTEN_AE288 and AG288 inserted at the C-terminus of the FVIII BDD sequence and FVIII-XTEN fusion proteins with AE42 and AE288 inserted after residue 745 (or residue 743) and before residue 1640 (or residue 1638) of the B-domain […], were expressed in transiently transfected Freestyle 293 cells, as described above, and tested for procoagulant activity. […] The assay was performed according to manufacturer's instructions using the end-point method, which was measured spectrophotometrically at OD405 nm A standard curve was created using purified FVIII protein at concentrations of 250, 200, 150, 100, 75, 50, 37.5, 25, 12.5, 6.25, 3.125 and 1.56 mU/ml. […] The cell culture media of the FVIII-XTEN constructs were obtained as described, above, and were tested in replicates at 1:50, 1:150, and 1:450 dilutions and the activity of each was calculated in U/ml.
Using the Chromogenix Coamatic Factor VIII (Chromogenix, cat#82258563) the activity of FVIII is assessed as follows. […] The color is then read spectrophotometrically at 405 nm The generated factor Xa and thus the intensity of color is proportional to the factor VIII activity in the sample. […]

[3] = test system: FVIII activity; experiment: Two-stage chromogenic FVIII activity assay of transient transfection cell culture supernatant; format: biochemical; details: HEK293 cell culture supernatant, 5-day transient transfection
Method: Two FVIII-XTEN fusion proteins, FVIII-AE288 (F8X-40) and FVIII-AG288 (F8X-41), contain an AE288 XTEN or an […] XTEN, respectively, fused at the C-terminus of FVIII C2 domain. To determine if FVIII activity was retained after XTEN fusion, HEK293 cells were transfected separately with these two FVIII-XTEN fusion constructs by using polyethylenimine (PEI) in serum-free medium. At 3 or 5 days post-transfection, the cell culture supernatant was tested for FVIII activity by a two-stage chromogenic assay. Purified recombinant FVIII, calibrated against WHO international standard, was used to establish the standard curve in the chromogeinic assay. […] (Table 26).

B1: AC404 (protein)
chain: AVFVTQEEAHGVLHRRRRANAFLEELRPGSLERECKEEQCSFEEAREIFKDAERTKLFWISYSDGDQCASSPCQNGGSCKDQLQSYICFCLPAFEGRNCETHKDDQLICVNENGGCEQYCSDHTGTKRSCRCHEGYSLLADGVSCTPTVEYPCGKIPILEKRNASKPQGRIVGGKVCPKGECPWQVLLLVNGAQLCGGTLINTIWVVSAAHCFDKIKNWRNLIAVLGEHDLSEHDGDEQSRRVAQVIIPSTYVPGTTNHDIALLRLHQPVVLTDHVVPLCLPERTFSERTLAFVRFSLVSGWGQLLDRGATALELMVLNVPRLMTQDCLQQSRKVGDSPNITEYMFCAGYSDGSKDSCKGDSGGPHATHYRGTWYLTGIVSWGQGCATVGHFGVYTRVSQYIEWLQKLMRSEPRPGVLLRAPFPGSPGSPAGSPTSTEEGTSESATPESGPGTSTEPSEGSAPGSPAGSPTSTEEGTSTEPSEGSAPGTSTEPSEGSAPGTSESATPESGPGSEPATSGSETPGSEPATSGSETPGSPAGSPTSTEEGTSESATPESGPGTSTEPSEGSAPGTSTEPSEGSAPGSPAGSPTSTEEGTSTEPSEGSAPGTSTEPSEGSAPGTSESATPESGPGTSTEPSEGSAPGTSESATPESGPGSEPATSGSETPGTSTEPSEGSAPGTSTEPSEGSAPGTSESATPESGPGTSESATPESGPGSPAGSPTSTEEGTSESATPESGPGSEPATSGSETPGTSESATPESGPGTSTEPSEGSAPGTSTEPSEGSAPGTSTEPSEGSAPGTSTEPSEGSAPGTSTEPSEGSAPGTSTEPSEGSAPGSPAGSPTSTEEGTSTEPSEGSAPGTSESATPESGPGSEPATSGSETPGTSESATPESGPGSEPATSGSETPGTSESATPESGPGTSTEPSEGSAPGTSESATPESGPGSPAGSPTSTEEGSPAGSPTSTEEGSPAGSPTSTEEGTSESATPESGPGTSTEPSEGSAPGTSESATPESGPGSEPATSGSETPGTSESATPESGPGSEPATSGSETPGTSESATPESGPGTSTEPSEGSAPGSPAGSPTSTEEGTSESATPESGPGSEPATSGSETPGTSESATPESGPGSPAGSPTSTEEGSPAGSPTSTEEGTSTEPSEGSAPGTSESATPESGPGTSESATPESGPGTSESATPESGPGSEPATSGSETPGSEPATSGSETPGSPAGSPTSTEEGTSTEPSEGSAPGTSTEPSEGSAPGSEPATSGSETPGTSESATPESGPGTSTEPSEGSAPGSSS
With B1 the “Apparent MW” value [1] was 1900 kDa, the “Apparent Molecular Weight Factor” value [1] was 14.7 and the RH [1] was 10.1 nm.

B2: pBC0114: base construct expressing BDD FVIII, pcDNA4-FVIII_4-…-Myc-SPATG-His, lacking XTEN insertions (protein)
chain: MQIELSTCFFLCLLRFCFSATRRYYLGAVELSWDYMQSDLGELPVDARFPPRVPKSFPFNTSVVYKKTLFVEFTDHLFNIAKPRPPWMGLLGPTIQAEVYDTVVITLKNMASHPVSLHAVGVSYWKASEGAEYDDQTSQREKEDDKVFPGGSHTYVWQVLKENGPMASDPLCLTYSYLSHVDLVKDLNSGLIGALLVCREGSLAKEKTQTLHKFILLFAVFDEGKSWHSETKNSLMQDRDAASARAWPKMHTVNGYVNRSLPGLIGCHRKSVYWHVIGMGTTPEVHSIFLEGHTFLVRNHRQASLEISPITFLTAQTLLMDLGQFLLFCHISSHQHDGMEAYVKVDSCPEEPQLRMKNNEEAEDYDDDLTDSEMDVVRFDDDNSPSFIQI
modifications: Myc and His tags
In the case of B2, the “Specific Activity” value ([2]; activity (Chromogenix) per concentration (ELISA)) is reported as 5000 IU/mg and the Activity ([2]; cell culture medium of transiently transfected Freestyle 293 cells, Chromogenix Coamatic Factor VIII assay) is reported as 3.0 IU/ml.

B3: pBC 0114 (protein)
chain: B2 chain
For B3, the FVIII activity ([3]; Sample A) was 6.68 IU/ml and the FVIII activity ([3]; Sample B) was 7.61 IU/ml.

B4: AC398 (protein)
chain: AVFVTQEEAHGVLHRRRRANAFLEELRPGSLERECKEEQCSFEEAREIFKDAERTKLFWISYSDGDQCASSPCQNGGSCKDQLQSYICFCLPAFEGRNCETHKDDQLICVNENGGCEQYCSDHTGTKRSCRCHEGYSLLADGVSCTPTVEYPCGKIPILEKRNASKPQGRIVGGKVCPKGECPWQVLLLVNGAQLCGGTLINTIWVVSAAHCFDKIKNWRNLIAVLGEHDLSEHDGDEQSRRVAQVIIPSTYVPGTTNHDIALLRLHQPVVLTDHVVPLCLPERTFSERTLAFVRFSLVSGWGQLLDRGATALELMVLNVPRLMTQDCLQQSRKVGDSPNITEYMFCAGYSDGSKDSCKGDSGGPHATHYRGTWYLTGIVSWGQGCATVGHFGVYTRVSQYIEWLQKLMRSEPRPGVLLRAPFPGSPGTSESATPESGPGSEPATSGSETPGTSESATPESGPGSEPATSGSETPGTSESATPESGPGTSTEPSEGSAPGSPAGSPTSTEEGTSESATPESGPGSEPATSGSETPGTSESATPESGPGSPAGSPTSTEEGSPAGSPTSTEEGTSTEPSEGSAPGTSESATPESGPGTSESATPESGPGTSESATPESGPGSEPATSGSETPGSEPATSGSETPGSPAGSPTSTEEGTSTEPSEGSAPGTSTEPSEGSAPGSEPATSGSETPGTSESATPESGPGTSTEPSEGSAPGSSS
In the case of B4, the “Apparent MW” value [1] is reported as 650 kDa, the “Apparent Molecular Weight Factor” value [1] is reported as 8.5 and the RH [1] is reported as 8.2 nm.
